According to paper PMC12416549 (2024):

T1: TNFR1 (Homo sapiens, UniProt P19438)
T1 chain: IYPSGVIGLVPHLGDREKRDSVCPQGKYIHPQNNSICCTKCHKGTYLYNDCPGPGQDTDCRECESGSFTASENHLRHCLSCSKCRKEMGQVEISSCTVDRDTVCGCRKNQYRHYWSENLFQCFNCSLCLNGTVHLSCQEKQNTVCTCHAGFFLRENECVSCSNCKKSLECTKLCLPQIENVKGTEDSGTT


Molecular target: T1, TNFR1
Experiment: yeast display SC50

Binder	apparent Kd (screen)
D59A (designed binder) MTLQELLREEALRRAEAEAFRYALELLAEKFPEQKEYLLDLAEEIESQIRSLSGVDVEAVRKFLDKEWAWVKELLAEHPAELAEVEAARAARLAELRAEVEAKVAA	0.539 nM
A98H (designed binder) MTLQELLREEALRRAEAEAFRYALELLAEKFPEQKEYLLDLAEEIESQIRSLSGVDVEDVRKFLDKEWAWVKELLAEHPAELAEVEAARAARLAELRHEVEAKVAA	0.593 nM
Y37M (designed binder) MTLQELLREEALRRAEAEAFRYALELLAEKFPEQKEMLLDLAEEIESQIRSLSGVDVEDVRKFLDKEWAWVKELLAEHPAELAEVEAARAARLAELRAEVEAKVAA	2.25 nM
D40H (designed binder) MTLQELLREEALRRAEAEAFRYALELLAEKFPEQKEYLLHLAEEIESQIRSLSGVDVEDVRKFLDKEWAWVKELLAEHPAELAEVEAARAARLAELRAEVEAKVAA	7.78 nM
L7E (designed binder) MTLQELEREEALRRAEAEAFRYALELLAEKFPEQKEYLLDLAEEIESQIRSLSGVDVEDVRKFLDKEWAWVKELLAEHPAELAEVEAARAARLAELRAEVEAKVAA	15.2 nM
K66R (designed binder) MTLQELLREEALRRAEAEAFRYALELLAEKFPEQKEYLLDLAEEIESQIRSLSGVDVEDVRKFLDREWAWVKELLAEHPAELAEVEAARAARLAELRAEVEAKVAA	0.869 nM
L41T (designed binder) MTLQELLREEALRRAEAEAFRYALELLAEKFPEQKEYLLDTAEEIESQIRSLSGVDVEDVRKFLDKEWAWVKELLAEHPAELAEVEAARAARLAELRAEVEAKVAA	0.539 nM
E29P (designed binder) MTLQELLREEALRRAEAEAFRYALELLAPKFPEQKEYLLDLAEEIESQIRSLSGVDVEDVRKFLDKEWAWVKELLAEHPAELAEVEAARAARLAELRAEVEAKVAA	0.718 nM
V60E (designed binder) MTLQELLREEALRRAEAEAFRYALELLAEKFPEQKEYLLDLAEEIESQIRSLSGVDVEDERKFLDKEWAWVKELLAEHPAELAEVEAARAARLAELRAEVEAKVAA	4.39 nM
A98K (designed binder) MTLQELLREEALRRAEAEAFRYALELLAEKFPEQKEYLLDLAEEIESQIRSLSGVDVEDVRKFLDKEWAWVKELLAEHPAELAEVEAARAARLAELRKEVEAKVAA	0.446 nM
I45E (designed binder) MTLQELLREEALRRAEAEAFRYALELLAEKFPEQKEYLLDLAEEEESQIRSLSGVDVEDVRKFLDKEWAWVKELLAEHPAELAEVEAARAARLAELRAEVEAKVAA	1.05 nM
D65L (designed binder) MTLQELLREEALRRAEAEAFRYALELLAEKFPEQKEYLLDLAEEIESQIRSLSGVDVEDVRKFLLKEWAWVKELLAEHPAELAEVEAARAARLAELRAEVEAKVAA	0.956 nM
A106W (designed binder) MTLQELLREEALRRAEAEAFRYALELLAEKFPEQKEYLLDLAEEIESQIRSLSGVDVEDVRKFLDKEWAWVKELLAEHPAELAEVEAARAARLAELRAEVEAKVAW	0.956 nM
R92H (designed binder) MTLQELLREEALRRAEAEAFRYALELLAEKFPEQKEYLLDLAEEIESQIRSLSGVDVEDVRKFLDKEWAWVKELLAEHPAELAEVEAARAAHLAELRAEVEAKVAA	0.869 nM
V100A (designed binder) MTLQELLREEALRRAEAEAFRYALELLAEKFPEQKEYLLDLAEEIESQIRSLSGVDVEDVRKFLDKEWAWVKELLAEHPAELAEVEAARAARLAELRAEAEAKVAA	0.869 nM
E73C (designed binder) MTLQELLREEALRRAEAEAFRYALELLAEKFPEQKEYLLDLAEEIESQIRSLSGVDVEDVRKFLDKEWAWVKCLLAEHPAELAEVEAARAARLAELRAEVEAKVAA	0.79 nM
E95F (designed binder) MTLQELLREEALRRAEAEAFRYALELLAEKFPEQKEYLLDLAEEIESQIRSLSGVDVEDVRKFLDKEWAWVKELLAEHPAELAEVEAARAARLAFLRAEVEAKVAA	0.446 nM
L96E (designed binder) MTLQELLREEALRRAEAEAFRYALELLAEKFPEQKEYLLDLAEEIESQIRSLSGVDVEDVRKFLDKEWAWVKELLAEHPAELAEVEAARAARLAEERAEVEAKVAA	0.446 nM
E9K (designed binder) MTLQELLRKEALRRAEAEAFRYALELLAEKFPEQKEYLLDLAEEIESQIRSLSGVDVEDVRKFLDKEWAWVKELLAEHPAELAEVEAARAARLAELRAEVEAKVAA	1.86 nM
A80Y (designed binder) MTLQELLREEALRRAEAEAFRYALELLAEKFPEQKEYLLDLAEEIESQIRSLSGVDVEDVRKFLDKEWAWVKELLAEHPYELAEVEAARAARLAELRAEVEAKVAA	0.593 nM
A15D (designed binder) MTLQELLREEALRRDEAEAFRYALELLAEKFPEQKEYLLDLAEEIESQIRSLSGVDVEDVRKFLDKEWAWVKELLAEHPAELAEVEAARAARLAELRAEVEAKVAA	0.718 nM
E73H (designed binder) MTLQELLREEALRRAEAEAFRYALELLAEKFPEQKEYLLDLAEEIESQIRSLSGVDVEDVRKFLDKEWAWVKHLLAEHPAELAEVEAARAARLAELRAEVEAKVAA	0.539 nM

Now from value to binder:

apparent Kd (screen)	Binder
2.48 nM	F63L (designed binder) MTLQELLREEALRRAEAEAFRYALELLAEKFPEQKEYLLDLAEEIESQIRSLSGVDVEDVRKLLDKEWAWVKELLAEHPAELAEVEAARAARLAELRAEVEAKVAA
12.5 nM	D59F (designed binder) MTLQELLREEALRRAEAEAFRYALELLAEKFPEQKEYLLDLAEEIESQIRSLSGVDVEFVRKFLDKEWAWVKELLAEHPAELAEVEAARAARLAELRAEVEAKVAA
0.539 nM	R61I (designed binder) MTLQELLREEALRRAEAEAFRYALELLAEKFPEQKEYLLDLAEEIESQIRSLSGVDVEDVIKFLDKEWAWVKELLAEHPAELAEVEAARAARLAELRAEVEAKVAA
0.446 nM	E77K (designed binder) MTLQELLREEALRRAEAEAFRYALELLAEKFPEQKEYLLDLAEEIESQIRSLSGVDVEDVRKFLDKEWAWVKELLAKHPAELAEVEAARAARLAELRAEVEAKVAA
0.79 nM	E9D (designed binder) MTLQELLRDEALRRAEAEAFRYALELLAEKFPEQKEYLLDLAEEIESQIRSLSGVDVEDVRKFLDKEWAWVKELLAEHPAELAEVEAARAARLAELRAEVEAKVAA
0.653 nM	V104G (designed binder) MTLQELLREEALRRAEAEAFRYALELLAEKFPEQKEYLLDLAEEIESQIRSLSGVDVEDVRKFLDKEWAWVKELLAEHPAELAEVEAARAARLAELRAEVEAKGAA
0.593 nM	E77Q (designed binder) MTLQELLREEALRRAEAEAFRYALELLAEKFPEQKEYLLDLAEEIESQIRSLSGVDVEDVRKFLDKEWAWVKELLAQHPAELAEVEAARAARLAELRAEVEAKVAA
1.54 nM	L82G (designed binder) MTLQELLREEALRRAEAEAFRYALELLAEKFPEQKEYLLDLAEEIESQIRSLSGVDVEDVRKFLDKEWAWVKELLAEHPAEGAEVEAARAARLAELRAEVEAKVAA
0.718 nM	E95P (designed binder) MTLQELLREEALRRAEAEAFRYALELLAEKFPEQKEYLLDLAEEIESQIRSLSGVDVEDVRKFLDKEWAWVKELLAEHPAELAEVEAARAARLAPLRAEVEAKVAA
22.2 nM	W70A (designed binder) MTLQELLREEALRRAEAEAFRYALELLAEKFPEQKEYLLDLAEEIESQIRSLSGVDVEDVRKFLDKEWAAVKELLAEHPAELAEVEAARAARLAELRAEVEAKVAA
0.653 nM	R8S (designed binder) MTLQELLSEEALRRAEAEAFRYALELLAEKFPEQKEYLLDLAEEIESQIRSLSGVDVEDVRKFLDKEWAWVKELLAEHPAELAEVEAARAARLAELRAEVEAKVAA
0.49 nM	A88H (designed binder) MTLQELLREEALRRAEAEAFRYALELLAEKFPEQKEYLLDLAEEIESQIRSLSGVDVEDVRKFLDKEWAWVKELLAEHPAELAEVEAHRAARLAELRAEVEAKVAA
0.593 nM	K103V (designed binder) MTLQELLREEALRRAEAEAFRYALELLAEKFPEQKEYLLDLAEEIESQIRSLSGVDVEDVRKFLDKEWAWVKELLAEHPAELAEVEAARAARLAELRAEVEAVVAA
